Data taken from PMC6853952, “MUC4-ErbB2 Oncogenic Complex: Binding studies using Microscale Thermophoresis” (Scientific Reports, 2019).
Blank lines part the entries; values can stand above or below the molecule they belong to.

Assays:
[1] = biological target: eGFP-MUC4β fusion protein (transmembrane β subunit of MUC4) (human) (UniProt Q99102); assay: MST; normal model, optimised conditions: MPer lysate with the eGFP fusion kept constant around 33 nM, Fc protein titrated 1:1 in PBS with 0.05% P20 from 1 µM to 0.05 nM; 80% MST power, MST-on 30 s; blue LED
[2] = biological target: eGFP-MUC4β fusion protein (transmembrane β subunit of MUC4) (human) (UniProt Q99102); assay: MST; normal model: eGFP fusion in CHO-K1 lysate kept constant, ErbB2-Fc titrated, label-free; lysis buffer MPer, dilution in MST buffer; 23 °C
[3] = biological target: eGFP-MUC4β fusion protein (transmembrane β subunit of MUC4) (human) (UniProt Q99102); assay: MST; normal model: eGFP fusion in CHO-K1 lysate kept constant, ErbB2-Fc titrated, label-free; lysis buffer RIPA, dilution in PBS; 23 °C
[4] = biological target: eGFP-MUC4β fusion protein (transmembrane β subunit of MUC4) (human) (UniProt Q99102); assay: MST; normal model: eGFP fusion in CHO-K1 lysate kept constant, ErbB2-Fc titrated, label-free; lysis buffer RIPA, dilution in Tris-based MST buffer; 23 °C
[5] = biological target: T1, recombinant human ErbB2-Fc chimera (human, UniProt P04626 23-652); assay: MST; reverse model: ErbB2-Fc labelled on its 6His-tag with RED-tris-NTA dye kept constant, MPer lysate containing the eGFP fusion titrated 3:1 in PBS with 0.05% P20 (up to about 400 nM); red LED, 80% MST power; conditions: one partner purified
T1 construct: ErbB2 receptor tyrosine kinase, human; extracellular domains, lacks the TM and CT part; Described as a disulfide-linked homodimeric protein; In the reverse model it was labelled on its 6His-tag with RED-tris-NTA dye (not covalent); also called recombinant ErbB2

[6] = biological target: T1, recombinant human ErbB2-Fc chimera; assay: MST; normal model, optimised conditions: MPer lysate with the eGFP fusion kept constant around 33 nM, Fc protein titrated 1:1 in PBS with 0.05% P20 from 1 µM to 0.05 nM; 80% MST power, MST-on 30 s; blue LED; conditions: one partner purified

Kd [1]: > 20000 nM
Molecule: PD-1-Fc (non-relevant protein containing the same Fc as recombinant ErbB2) (from UniProt Q15116 25-170) (Fc fusion)

Kd [2]: > 20000 nM | Kd [1]: 131 nM | Kd [3]: > 20000 nM | Kd [4]: > 20000 nM
Molecule: recombinant human ErbB2-Fc chimera (from UniProt P04626 23-652) (Fc fusion)

Kd [5]: 65 ± 14 nM | Kd [6]: 79 ± 18 nM
B1: eGFP-MUC4_(EGF3+1+2) (truncated mutant encompassing only the EGF domains of MUC4) (domain or fragment, human, UniProt Q99102 5118-5360, looked up)
chain: QNQSCPVNYCYNQGHCYISQTLGCQPMCTCPPAFTDSRCFLAGNNFSPTVNLELPLRVIQLLLSEEENASMAEVNASVAYRLGTLDMRAFLRNSQVERIDSAAPASGSPIQHWMVISEFQYRPRGPVIDFLNNQLLAAVVEAFLYHVPRRSEEPRNDVVFQPISGEDVRDVTALNVSTLKAYFRCDGYKGYDLVYSPQSGFTCVSPCSRGYCDHGGQCQHLPSGPRCSCVSFSIYTAWGEHCE
notes: MUC4, UniProt Q99102; said to hold the three EGF-like domains EGF3, EGF1 and EGF2 with what lies between; source: CHO-K1, transfected (peGFP-C1), selected, in cell lysate, used without further purification
